Results from US8609611B2, “Synthesis of small particles” (MAP Pharmaceuticals, Inc., priority 2001, dated 2013).
Like-named read-outs stand apart in the source and are kept apart here.

How the values were obtained:
[1] = Size exclusion chromatography: biochemical integrity, monomer content; format: physicochemical; settings: by anti-solvent used in processing
Description: A protein-Pak 125 column (Waters, USA) was used for insulin. The mobile phase consisted of 50 mM sodium phosphate buffer at pH 3 with 300 mM sodium chloride. The powder samples were dissolved to prepare 1 mg/mL solution in deionised water by gentle shaking for 10 minutes to have complete dissolution. The supernatant was filtered through […] membrane filter and then injected into the HPLC column. […] The software Millennium 3.5 was used in the quantification of the monomer content.

[2] = Aerosol performance by Cascade Impactor (5 stage Marple-Miller Impactor), fine particle mass; format: physicochemical; settings: 60 L/min, Dinkihaler, FIG. 6
Description: In order to determine the aerosol performance of the collected fine protein particles, in vitro testing of the particles was assessed using a 5 stage Marple-Miller Impactor (Model 160, MSP Corporation, USA) with cut-off diameters of 10.0, 5.0, 2.5, 1.25, and 0.625 μm. The Marple-Miller impactor consisted of a stainless steel inlet throat, five impaction stages and an integral filter stage. The stages were previously coated with propylene glycol/methanol (50:50) to prevent particle bounce, thus minimising the probability of carry over of coarse particles onto lower stages.
A mass of 10-20 mg of insulin was weighed into a gelatin capsule (size 3, Park Davis, Australia) and was immediately dispersed by a powder inhaler device, Dinkihaler (Aventis, Frankfurt, Germany) into the Marple Miller Impactor at 60 L/min using a vacuum source (ERWEKA GMBH, Germany). The fraction of the protein recovered in each stage was calculated by measuring the absorbance of the protein solution against the absorbance of a standard 1% solution of insulin.

[3] = values reported in the literature; cited from earlier work
[4] = Median particle size by laser diffraction; format: physicochemical
From the text: These fine insulin particles may aggregate to form larger particles due to intermolecular interaction between the molecules. […] Insulin precipitated as nano-sized particles, was also agglomerated to micron-sized particles.

[5] = Size of precipitated primary particles (SEM images); format: physicochemical
From the text: These fine insulin particles may aggregate to form larger particles due to intermolecular interaction between the molecules.

Row | Substance | retention of biological activity as indicated by the in vitro test for monomer content [1] | fine particle fraction (%<5 μm) [2] | maximum FPM for insulin obtained by other methods [3] | median particle size (laser diffraction) of agglomerated powder [4] | median particle size (laser diffraction) of agglomerated powder ([4]; listed as Insulin) | size of nano-sized particles as precipitated ([5]; modified (dual chamber) ASES apparatus) | size of nano-sized particles as precipitated ([5]; single-stage apparatus)
1 | CO2-ethanol: Insulin particles precipitated from aqueous solution using CO2-20 mol % ethanol as anti-solvent | significant deactivation | – | – | – | – | – | –
2 | Ethane-ethanol | retention of biological activity | – | – | – | – | – | –
3 | insulin: Low endotoxin bovine insulin (Sigma), micronised from aqueous solution by the ASES process into fine particles | – | at least 42% | ≤ 10% | 5 μm | about 5 μm | 50-500 nm | 50-500 nm
